For the experiment, the target named is T1, human CD27 (human, UniProt P26842 20-260).
T1 sequence (looked up): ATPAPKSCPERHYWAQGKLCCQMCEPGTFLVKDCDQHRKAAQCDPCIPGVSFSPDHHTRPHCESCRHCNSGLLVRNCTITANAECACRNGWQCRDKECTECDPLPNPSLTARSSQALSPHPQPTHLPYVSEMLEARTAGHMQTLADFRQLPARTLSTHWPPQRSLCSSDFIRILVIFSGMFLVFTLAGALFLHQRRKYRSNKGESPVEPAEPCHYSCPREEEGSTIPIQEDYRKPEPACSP
As to the kind of experiment: cell-based or functional assay.

B1: varlilumab (anti-human CD27 mAb) (antibody, V domains shown)
VH: QVQLVESGGGVVQPGRSLRLSCAASGFTFSSYDMHWVRQAPGKGLEWVAVIWYDGSNKYYADSVKGRFTISRDNSKNTLYLQMNSLRAEDTAVYYCARGSGNWGFFDYWGQGTLVTVSS
VL: DIQMTQSPSSLSASVGDRVTITCRASQGISRWLAWYQQKPEKAPKSLIYAASSLQSGVPSRFSGSGSGTDFTLTISSLQPEDFATYYCQQYNTYPRTFGQGTKVEIK
For the molecule B1, the “level of CD14 on monocytes in human PBMC cultures after 48 hours (flow cytometry)” value is 2 fold and the “monocyte number in human PBMC cultures after 48 hours with 5 µg/mL mAb (flow cytometry)” value turned out to be 3 fold.

For the origin of these results see US20190169306A1 (UNIVERSITY OF SOUTHAMPTON, published 2019).
